Test system: H460 cells
Experiment: H460 non-small cell lung carcinoma xenograft model
Type: in vivo, athymic nude mice
Details: combination partner Paclitaxel, Day 21
Method: Animals were monitored for regression responses.
The statistical tests were not adjusted for multiple comparisons.
Cultured H460 cells were harvested during exponential growth and resuspended in phosphate buffered saline at a concentration of 1×10^8 cells/mL. 1.0×10^7 tumor cells were injected subcutaneously into the flank of athymic nude mice. Animals were euthanized when tumors reached the pre-determined volume endpoint of 2000 mm^3 or on the final day (Day 88), whichever came first.

B1: M830: TEM8 monoclonal antibody (hIgG1), VH SEQ ID NO:5, VL SEQ ID NO:6; Fab in Table 6 (antibody, V domains shown)
VH: EVQLVESGGGVVQPGRSVRLSCAASGFTFSTYTMHWVRQAPGKGLEWVAIISNDGSNKYYADPVRGRFTISRDNSKNTLYLQMNSLRAEDTAVYYCVRGSSWYRGNWFDPWGQGTLVTVSS
VL: DIQMTQSPSSLSASVGDRVTIACRASQTISRYLNWYQQKPGKAPKLLIYAASSLQSGVSSRFSGSGSGTEFTLTISSLQPEDFATYFCQQTYSPPITFGQGTRLEIKR
modifications: TEM830 mAb VH; TEM830 mAb VL
- regression: (−61%

Reference: patent US11033621B2, “Combination therapies targeting tumor-associated stroma or tumor cells” (BIOMED VALLEY DISCOVERIES, INC., priority 2014, dated 2021)
